Here are results for eight molecules from paper PMC8083607 (National Science Review, 2021).

Substitutions are numbered along the chain they refer to.

Common to all, as to assay: ELISA
Conditions in all cases: both partners purified
(ELISA stands for enzyme-linked immunosorbent assay.)

Experiment [1] has as its target MERS-CoV S2 (MERS-CoV, strain not named (entry: …, UniProt K9N5Q8)).
Experiment [2] deals with SARS-CoV S2 (SARS-CoV, strain not named (reference …, UniProt P59594)).
In experiment [3] the target is SARS-CoV-2 S2 (recombinant) (SARS-CoV-2 Wuhan-Hu-1 (MN908947.3 used …, UniProt P0DTC2)).
The target in experiment [4] is T1, SARS-CoV-2 NTD (recombinant, limits not stated) (SARS-CoV-2 Wuhan-Hu-1 (MN908947.3), UniProt P0DTC2).
T1 construct: also called N-terminal domain

Experiment [5] has as its target SARS-CoV RBD (Severe acute respiratory syndrome …, UniProt P59594).
Experiment [6] has as its target SARS-CoV NTD (SARS-CoV, strain not named (reference …, UniProt P59594)).

Sequence of MERS-CoV S2 (MERS-CoV, strain not named (K9N5Q8 whole entry, looked up): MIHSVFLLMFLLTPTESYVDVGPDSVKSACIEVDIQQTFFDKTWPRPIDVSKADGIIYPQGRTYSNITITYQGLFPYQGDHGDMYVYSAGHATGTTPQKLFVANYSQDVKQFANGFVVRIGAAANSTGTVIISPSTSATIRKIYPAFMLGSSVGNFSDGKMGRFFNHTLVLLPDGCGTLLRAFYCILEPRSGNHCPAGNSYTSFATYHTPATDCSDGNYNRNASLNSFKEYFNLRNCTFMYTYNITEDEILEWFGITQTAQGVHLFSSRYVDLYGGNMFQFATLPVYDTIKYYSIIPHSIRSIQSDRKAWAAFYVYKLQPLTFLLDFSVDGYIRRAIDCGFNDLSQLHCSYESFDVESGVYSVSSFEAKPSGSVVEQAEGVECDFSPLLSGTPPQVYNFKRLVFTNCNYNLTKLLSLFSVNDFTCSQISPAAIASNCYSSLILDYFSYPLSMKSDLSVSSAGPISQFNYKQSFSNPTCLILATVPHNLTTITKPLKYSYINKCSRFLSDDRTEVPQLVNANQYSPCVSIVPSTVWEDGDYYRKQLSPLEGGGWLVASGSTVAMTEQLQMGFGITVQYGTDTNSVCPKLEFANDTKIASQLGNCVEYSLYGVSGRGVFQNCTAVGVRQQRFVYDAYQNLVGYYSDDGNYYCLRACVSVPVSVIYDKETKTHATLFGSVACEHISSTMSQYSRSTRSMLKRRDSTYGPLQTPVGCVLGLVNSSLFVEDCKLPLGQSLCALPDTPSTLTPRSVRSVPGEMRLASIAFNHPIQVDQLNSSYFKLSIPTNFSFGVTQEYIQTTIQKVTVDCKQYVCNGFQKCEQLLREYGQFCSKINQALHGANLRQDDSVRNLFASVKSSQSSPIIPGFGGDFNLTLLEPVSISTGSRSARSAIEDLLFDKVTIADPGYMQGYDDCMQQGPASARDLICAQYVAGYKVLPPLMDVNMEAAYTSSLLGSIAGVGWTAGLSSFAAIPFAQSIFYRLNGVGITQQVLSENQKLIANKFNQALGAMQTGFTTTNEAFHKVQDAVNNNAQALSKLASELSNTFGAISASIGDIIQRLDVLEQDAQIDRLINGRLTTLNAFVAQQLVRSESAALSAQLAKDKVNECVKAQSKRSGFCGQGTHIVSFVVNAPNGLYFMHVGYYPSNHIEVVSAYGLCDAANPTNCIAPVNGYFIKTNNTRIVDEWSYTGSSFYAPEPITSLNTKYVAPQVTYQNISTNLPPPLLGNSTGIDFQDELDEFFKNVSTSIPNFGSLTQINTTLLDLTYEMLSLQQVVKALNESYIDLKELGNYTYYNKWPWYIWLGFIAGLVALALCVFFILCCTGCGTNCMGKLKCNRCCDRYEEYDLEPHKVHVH

B1: FC120 (antibody, V domains shown)
VH: EVQLLESGAEVKKPGASVKVSCKASGYTFTSYYMHWVRQAPGQGLEWMGIINPSGGSTSYAQKFQGRVTMTRDTSTSTVYMELSSLRSEDTAVYYCARGGGHALDIWGQGTMVTVSS
VL: QSVLTQPPSVSGAPGQKVTISCSGSSSNIGNNYVSWYQQLPGTAPKLLIYDNNKRPSGIPDRFSGSKSGTSATLGITGLQTGDEADYYCGTWDSSLSAWVFGGGTKLTVL
In the case of B1, the binding result in experiment [1], in experiment [2] and in experiment [3] was “binds” in each case.

B2: FC05 (antibody, V domains shown)
VH: VQLLEQSGAEVKKPGASVRVSCKVSGYTLPEVAMHWVRQAPGKGLEWMGGFDPEDGETMYAQKFQGRVTMTEDTSTDTAYMELSSLRSEDTAVYYCATTTPFSSSYWFDPWGQGTLVTVSS
VL: B1 VL with P7A, W99V
notes: also called FC05 mAb
As for B2, in experiment [4], the binding result was “binds”.

B3: FC11 (antibody, V domains shown)
VH: EVQLLESGGGVVQPGRSLRLSCAASGFTFSYYGMHWVRQAPGTGLEWVAVISYDGSNEYYADSVKGRFTISRDNSKNTLYLQMNSLRAEDTAVYYCAKAMFLGDSSGLTGLDMDVWGQGTTVTVSS
VL: DIELTQSPGTLSLSPGERATLSCRASQSVSSYLAWYQQKPGQAPRLLIYDASNRATGIPARFSGSGSGTDFTLTISSLEPEDFALYYCQQRGNWPPTFGGGTKLEIK
B3: the binding result in experiment [5] is recorded as “binds”.

B4: FC07 (antibody, V domains shown)
VH: EVQLLESGGGLVQPGGSLRLSCAASGFTFGSYAMSWVRQAPGKGLEWVSSISGSGGSTYYADSAKGRFTISRDNSKNTLYLQMNSLRAEDTAVYYCAKSPNYDILTGYYNWAGYYFDYWGQGTLVTVSS
VL: DIELTQSPGTLSLSPGDRATLSCRASRGVSSNSLAWYRQRPGESPRLVISGASTRATGIPERFSGSGSGTDFSLSISRLQPEDFAVYYCQQYGSFPFTFGPGTTVDV
As to B4, the binding result in experiment [6] and in experiment [4] was “binds” each time.

B5: FC124 (antibody, V domains shown)
VH: EVQLLESGGGVVQPGRSLRLSCAASGFTFSSYAMHWVRQAPGKGLEWVALISYDGINKYYADSVNGRFTISRDNSKYTLYLQMNSLRAEDTAVYYCARAHRGSYYYGMDVWGQGTMVTVSS
VL: DIELTQSPGTLSLSPGERATLYCRASQSVSSSYLAWYQQKPGQAPRLLIYGAFGRAAGIPDRFRGSGSGTQFTLTISRLEPEDSAVYFCQQYGQSPLYSFGQGTKLEIK
On to B5, for which the binding result in experiment [1], in experiment [2] and in experiment [3] was “binds” in each case.

B6: FC122 (antibody, V domains shown)
VH: B5 VH
VL: DIELTQSPSSLSASVGDSVTITCRGSQIISRYLNWYQQKPGKAPKLLIYAASTLQSGVPSRFSGSGSGTEFTLSISSLEPEDFATYYCQQSYAIPYTFGQGTRLEI
For the molecule B6, the binding result in experiment [3] is given as “binds”.

B7: FC118 (antibody, V domains shown)
VH: B5 VH with L50V, I56S, N65K, Y77N, H100R, R101G, Y105L, T115A
VL: DIELTQSPSSLAASVGDTVTITCRASQTIGKYLTWYQKKPGRAPDLLIYAASRLQSGVPSRFSGRASGTEFTLTISSLQPEDFATYFCQHTYRTLSFGPGTKVDLK
As for B7, the binding result in experiment [1], in experiment [2] and in experiment [3] was “binds” in each case.

B8: FC06 (antibody, V domains shown)
VH: EVQLLESGGGVVQPGRSLRLSCAASGFTFSSYAMHWVRQAPGEGLEWVAVISYDGSNKYYADSVKGRFTISRDNSKNTLYLQMNSLRAGDTAVYYCARLNYYGSGFYYRLGDDYWGQGTLVTVSS
VL: DIELTQSPSSLSASEGDRVTITCRASQGIRNDLGWYQQKPGKAPKRLIYGAPSLQSGVPSRFSGSGSGTEFTLTISTLQPEDSATYYCLQHNKYPWTFGQGTKVEIK
Turning to B8, the binding result in experiment [4] is given as “binds”.
